Where a chain is given by its changes, count along the chain named. Names may count otherwise. Read-outs that look alike come from different tables or passages of the source.
Assays:
[1] = system: S. cerevisiae strain sKR-024; experiment: Growth of synthetic yeast strain sKR-024 expressing EPSPS variants with or without glyphosate; format: cell-based, Saccharomyces cerevisiae; settings: for growth in yeast minimal media without glyphosate: 0 mM glyphosate; for order of glyphosate tolerance: 5 mM glyphosate, FIG. 1 Panel C; for glyphosate tolerance in synthetic yeast host: mutants isolated from directed evolution
Description: EPSPS variants were re-cloned into a clean p416-Core1p backbone and transformed into strain sKR-024 as described above. Colonies were then picked in triplicate into YSC-Ura-Leu and outgrown for 2 days at 30° C. Cultures were then diluted back to OD 0.001 in yeast minimal media (YMM) containing varying amounts of glyphosate as indicated. Growth rate measurements were then obtained using an Infinite M200 PRO microplate reader (Tecan, Männedorf, Switzerland) with incubation at 30° C. for 72-120 hours depending on growth rate of selected variants.
To determine if this system could further corroborate observations from previous literature, the well-studied EPSPS mutants T102I and P106S, and the combined double mutant TIPS (T102I-P106S) were generated and complemented into this yeast system. These mutations were reported to result in varying degrees of glyphosate resistance.
Having established low copy number and weak promoter expression of EPSPS variants, it was sought to recharacterize phenotypes under field conditions that are used in planta. […] It has been reported previously that under standard glyphosate foliar application, 0.3 mM or more of glyphosate (gly) can accumulate in a plant's root nodules and meristems. […] These trends support reported literature of mutants P106S and TIPS grown in various plant hosts. As a result, the present synthetic yeast model system closely resembles in planta observations and thus can be used to select for dual-trait EPSPS variants aimed at both enzymatic efficiency and glyphosate resistance.
Select mutants isolated from the final directed evolution campaign with the improved selection strategy were further evaluated in assorted glyphosate concentrations to determine growth characteristics. Mutants isolated from an EPSPS background were evaluated in media containing 0 mM and 0.25 mM glyphosate with the latter being the concentration at which wild-type EPSPS cannot grow after 100 hours. […] The non-glyphosate mono selection highlighted in blue represents mutations resulting from 5 subcultures in 0 mM glyphosate. The low glyphosate dual selection highlighted in light green represents mutants resulting from an additional subculture into 0.5 mM glyphosate. Lastly, the high glyphosate dual selection highlighted in dark green represent mutations isolated after subcultures in increasing levels of glyphosate, up to 10 mM.

transgenic maize plants = experiment: Maize transformation with glyphosate selection, plantlet recovery and quality checks; format: in vivo, Zea mays; settings: for Number of young plants passing quality control checks: in vivo; for Number of plantlets generated: under glyphosate selection, same amount of starting material
Excerpt: Maize was used as a model system to test the functionality of the EPSPS variants because of detailed previous characterization of glyphosate tolerance in maize and a suitable transgenic plant generation protocol that relies on glyphosate. Plant transformation vectors were generated in which the native maize EPSPS sequence was used, which includes the native gene promoter elements, the native introns and exons and the native 3′ untranslated region and introduced mutations that corresponded to each of the selected amino acid changes. The native sequence was used to mimic as closely as possible how the selected EPSPS variants would perform if the variants were introduced directly in the genome without the help of strong expression elements. The following variants were selected for testing in a transgenic maize system: TIPS (as a control); TIPS-P126S-M217L-K296R; TIPS-P126S-K296R; T102I-P126S-K296R (where only the T102I change is present); P106S-P126S-K296R (where only the P106S change is present); and P126S-K296R (where neither of the TIPS changes are present).
Transgenic maize plants that expressed each of the six EPSPS variants were generated to determine if the variants conferred glyphosate tolerance to plants. The full DNA sequence encoding TIPS EPSPS (SEQ ID NO:1) was cloned from maize genomic DNA. In this sequence, the promoter and 5′ UTR are nucleotides 1:2556; the chloroplast transit peptide sequence is nucleotides 2557:2742; EXON 1 is nucleotides 2743:2856; INTRON 1 is nucleotides 2857:3384; EXON 2 is nucleotides 3385:3626; INTRON 2 is nucleotides 3627:3725; EXON 3 is nucleotides 3726:3879; INTRON 3 is nucleotides 3880:4152; EXON 4 is nucleotides 4153:4367; INTRON 4 is nucleotides 4368:4877; EXON 5 is nucleotides 4878:4995; INTRON 5 is nucleotides 4996:5155; EXON 6 is nucleotides 5156:5366; INTRON 6 is nucleotides 5367:5446; EXON 7 is nucleotides 5447:5508; INTRON 7 is nucleotides 5509:5617; EXON 8 is nucleotides 5618:5836; and the 3′ UTR is nucleotides 5837:6368. Mutations were then introduced into the EPSPS coding sequence in order to produce each of the six EPSPS variants to be tested. These mutated full genomic DNA sequences were then each cloned as a single expression cassette into plant transformation vectors.
Agrobacterium tumefaciens-mediated plant transformation was performed using methods known in the art. Glyphosate selection was used to select for transgenic events containing the transgene of interest and further screened for only those EPSPS variants that provided effective glyphosate tolerance in a plant cell. While all six EPSPS variants began the transformation process with the same amount of starting maize cellular material, there were differences in the number of small plantlets recovered that were capable of being transplanted to greenhouse soil media (Table 4). Transgenic events were further analyzed to determine transgene copy number. Healthy events with single copy of the transgene of interest were grown in the greenhouse soil media. Only three of the six EPSPS variants had more than one plant surviving. Up to twenty-five of these developing R0 plants were transplanted to larger pots and allowed to grow to maturity for seed collection in the greenhouse.

maize EPSPS = experiment: In vitro characterization of EPSPS mutants (EnzChek phosphate assay, Michaelis-Menten kinetics, glyphosate Ki); format: biochemical, Zea mays; settings: for Km: apparent Km, mean±S.E.; for Ki: inhibitory constant for glyphosate, no unit in table (around 800 μM)
Description: Activity was determined by quantifying release of Pi, coupled to a reaction with MESG, catalyzed by purine-nucleoside phosphorylase using the EnzChek Phosphate Assay Kit from Invitrogen, first published in 1992. 95 μL of master mix was added to each well and 5 μL of the varied substrate dilutions were multi-channeled into the plate to start the reaction simultaneously for all conditions. Absorbance measurements at 360 nm were taken every 10 seconds for 3 minutes to capture the initial reaction rate of each condition. Varying levels of substrate were added to generate the resulting reaction rate curves. Each condition was performed in triplicate. Ki was determined as previously described (Lu, et al., Protein Engineering, Design and Selection 30:395-399 (2017)). Data was fit to the Michaelis-Menten kinetics equation and were also validated through GraphPad Prism's built-in function for each variant.
For protein expression of EPSPS and its variants, E. coli BL21 (DE3) was used as the expression host. Electrocompetent cells were transformed with the corresponding constructed plasmids, pET28a (+) with selected EPSPS variants (wild-type, TIPS, TIPS P126S, TIPS K296R, TIPS P126S/K296R). A single colony of an E. coli BL21 (DE3) strain harboring one of the constructed plasmids was inoculated into 2 mL of Luria Bertani broth (LB) medium with 50 μg/mL kanamycin and grown overnight at 37° C./225 rpm. The overnight-grown culture (using 100 μl) was scaled up with 2000-fold dilution in a 500-mL triple baffled shake flask and grown to a cell density of 0.8 (optical density [OD600]) at 37° C./225 rpm. Protein expression was induced by adding 0.2 mM of isopropyl β-D-1-thiogalactopyranoside (IPTG) and cells were cultured for 24 hours at 20° C./225 rpm. The induced cell culture was harvested by centrifugation at 4,000 g and 4° C. for 20 mins. Cell pellets were then resuspended in 25 mL of Dulbecco's Phosphate Buffered Saline (DPBS) (Thermo Fisher Scientific, Waltham, MA) pH 7.0 buffer containing 10 mM imidazole, 1 g/L of lysozyme and 5 μl of Pierce™ Universal Nuclease (Thermo Fisher Scientific, Waltham, MA), followed by mixing on a rocker for 30 mins at 4° C. Subsequently, cells were lysed by sonication and the resulting cell lysate was centrifuged at 14,000 g and 4° C. for 20 minutes to obtain the supernatant that contains soluble proteins. Target proteins from the supernatant was purified by HisPur™ Ni-NTA Resin (Thermo Fisher Scientific, Waltham, MA) according to the manufacturer's instruction.
The eluate was dialyzed with 3C protease added to the dialysis cassette, into the appropriate buffer followed by size-exclusion fast protein liquid chromatography. All EPSP synthase variants were stored in 20 mM Tris (pH 7.5), 100 mM NaCl and 10 mM β-mercaptoethanol. The protein concentration was then determined by using the Coomassie Plus Bradford Assay kit (Thermo Fisher Scientific) and the Infinite M200 PRO microplate reader (Tecan, Männedorf, Switzerland) to measure the absorbance of assay mixtures. The presence and purity of the purified proteins were assessed by sodium dodecyl sulfate-polyacrylamide gel electrophoresis.
Enzymatic activity, including inhibitory constant Ki, for EPSPS and TIPS closely corroborate values determined by previous reports. Mutations P126S and K296R have beneficial effects on their own to both Km and kcat and are additive when combined, similar to the observations of the in vivo growth characterization. Furthermore, the high Ki is maintained for each of the variants, showing similar or slightly higher values of around 800 μM compared to the starting point, TIPS. These findings confirm the phenotype endowed by the dual-trait selection pressure employed during the directed evolution campaigns. Kinetic parameters of maize EPSPS with mutations discovered through directed evolution. In Table 4, initial velocity data were measured in triplicate and fit to the Michaelis-Menten equation. […]

[2] = PEP at saturation (roughly 10 times its Km), read-out: Km (S3P)
[3] = S3P at saturation (roughly 10 times its Km), read-out: Km (PEP)

B1: P106S: well-studied EPSPS single mutant P106S (protein)
chain: AGAEEIVLQPIKEISGTVKLPGSKSLSNRILLLAALSEGTTVVDNLLNSEDVHYMLGALRTLGLSVEADKAAKRAVVVGCGGKFPVEDSKEEVQLFLGNAGTAMRSLTAAVTAAGGNATYVLDGVPRMRERPIGDLVVGLKQLGADVDCFLGTDCPPVRVNGIGGLPGGKVKLSGSISSQYLSALLMAAPLALGDVEIEIIDKLISIPYVEMTLRLMERFGVKAEHSDSWDRFYIKGGQKYKSPKNAYVEGDASSASYFLAGAAITGGTVTVEGCGTTSLQGDVKFAEVLEMMGAKVTWTETSVTVTGPPREPFGRKHLKAIDVNMNKMPDVAMTLAVVALFADGPTAIRDVASWRVKETERMVAIRTELTKLGASVEEGPDYCIITPPEKLNVTAIDTYDDHRMAMAFSLAACAEVPVAIRDPGCTRKTFPDYFDVLSTFVKN
Question: How did the “growth in yeast minimal media without glyphosate” value [1] turn out when B1 was run?
Answer: grew very similarly

Question: What about the growth in glyphosate ([1]; 0.5 mM glyphosate, Core1p promoter) of the same molecule?
Answer: slightly higher growth than EPSPS after 80 hours

Question: And the growth in glyphosate ([1]; 5 mM glyphosate (high levels))?
Answer: no growth

Question: And the “order of glyphosate tolerance” value [1]?
Answer: P106S<T102I<TIPS

B2: T102I: well-studied EPSPS single mutant T102I (protein)
chain: B1 chain with T102I, S106P
Question: Which “order of glyphosate tolerance” value [1] does the source give for B2 here?
Answer: P106S<T102I<TIPS

B3: T102I-P126S-K296R: maize EPSPS variant, SEQ ID NO:12 (protein)
chain: B1 chain with T102I, S106P, P126S, K296R
modifications: Zea mays
Question: How did the “Number of young plants passing quality control checks” value (transgenic maize plants) turn out when B3 was run?
Answer: 1

Question: What about the “Number of plantlets generated” value (transgenic maize plants) of the same molecule?
Answer: 69

B4: TIPS-P126L: maize EPSPS variant, SEQ ID NO:22 (protein)
chain: B1 chain with T102I, P126L
modifications: Zea mays
Question: With B4 as the molecule, how does the “glyphosate tolerance in synthetic yeast host” value [1] read?
Answer: moderate glyphosate tolerance

B5: P106S-K296R: P106S scaffold carrying ported mutation(s), as worded in b196 (protein)
chain: B1 chain with K296R
Question: Which growth in glyphosate ([1]; 5 mM glyphosate (high levels)) does the source give for B5 here?
Answer: observable growth

B6: TIPS-V66L-M104L: maize EPSPS variant, SEQ ID NO:17 (protein)
chain: B1 chain with V66L, T102I, M104L
modifications: Zea mays
Question: For B6, which “growth in yeast minimal media without glyphosate” value [1] is on record?
Answer: high growth in non-glyphosate

Question: And the “glyphosate tolerance in synthetic yeast host” value [1]?
Answer: high glyphosate tolerance

B7: P106S-P126S-K296R: maize EPSPS variant, SEQ ID NO:13 (protein)
chain: B1 chain with P126S, K296R
modifications: Zea mays
Question: B7 was tested. Which “Number of young plants passing quality control checks” value (transgenic maize plants) did it give?
Answer: 0

Question: What about the “Number of plantlets generated” value (transgenic maize plants) of the same molecule?
Answer: 39

B8: TIPS-P126S: maize EPSPS variant, SEQ ID NO:15 (protein)
chain: B1 chain with T102I, P126S
modifications: Zea mays
Question: What does the source list for B8?
Answer: Km (maize EPSPS; [2]): 28.2 µM; Km (maize EPSPS; [3]): 13.7 µM; Ki (maize EPSPS): 859 µM

B9: TIPS-1177V: maize EPSPS variant, SEQ ID NO:21 (protein)
chain: B1 chain with T102I, I177V
modifications: Zea mays
Question: B9 was tested. Which “glyphosate tolerance in synthetic yeast host” value [1] did it give?
Answer: moderate glyphosate tolerance

B10: TIPS-K296R: maize EPSPS variant, SEQ ID NO:16 (protein)
chain: B1 chain with T102I, K296R
modifications: Zea mays
Question: For B10, which Km (maize EPSPS; [2]) is on record?
Answer: 16.5 µM

Question: And the Km (maize EPSPS; [3])?
Answer: 24 µM

Question: What about the Ki (maize EPSPS) of the same molecule?
Answer: 841 µM
